Source: paper PMC9532426, “Autophagy induction promoted by m6A reader YTHDF3 through translation upregulation of FOXO3 mRNA”

Biological target: T1, YTHDF3 (mouse, UniProt Q8BYK6 1-585)
T1 sequence: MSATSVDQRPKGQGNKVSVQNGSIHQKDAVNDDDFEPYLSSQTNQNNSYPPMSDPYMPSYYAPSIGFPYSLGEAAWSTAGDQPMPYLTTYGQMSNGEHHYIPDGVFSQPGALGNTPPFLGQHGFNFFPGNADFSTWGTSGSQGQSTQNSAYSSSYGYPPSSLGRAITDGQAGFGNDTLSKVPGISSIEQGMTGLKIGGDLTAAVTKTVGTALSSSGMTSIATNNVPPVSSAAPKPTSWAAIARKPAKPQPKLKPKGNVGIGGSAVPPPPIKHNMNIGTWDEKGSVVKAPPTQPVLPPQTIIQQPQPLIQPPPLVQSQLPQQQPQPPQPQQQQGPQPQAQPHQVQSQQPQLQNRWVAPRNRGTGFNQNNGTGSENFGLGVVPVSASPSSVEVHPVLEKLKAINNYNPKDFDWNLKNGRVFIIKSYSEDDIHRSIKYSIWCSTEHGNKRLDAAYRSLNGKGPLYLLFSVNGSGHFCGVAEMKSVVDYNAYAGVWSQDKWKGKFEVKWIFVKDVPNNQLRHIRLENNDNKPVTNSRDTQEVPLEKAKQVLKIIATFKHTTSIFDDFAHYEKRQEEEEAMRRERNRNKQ
Assay: EMSA; LightShift Chemiluminescent RNA EMSA kit; 20 pmol RNA, 6 ug YTHDF3, room temperature 30 min; 6% TBE gel, 0.5x TBE; buffer salt and pH not stated
Settings: protein: commercial; label: 5' biotin

B1: Foxo3-CDS-m6A-biotin-RNAProbe 1 (ssRNA)
RNA: GUGACUUGGACCUGGAC
modifications: m6A at A4, A10, A16 (from text sites 2151, 2158, 2163 nt; the modified probe line is not in the material)
binding result: binds
